Tests used:
[1] = test system: cyclic AMP dependent protein kinase catalytic subunit; settings: serine at position 543; alkaline phosphatase restored activity; cited from earlier work
[2] = test system: catalytic subunit of protein kinase A; settings: reversed by phosphatase; cited from earlier work
[3] = molecular target: T1, endogenous beta2-adrenergic receptor (Homo sapiens, UniProt P07550); test: Stimulatory response to isoproterenol in HEK293 cells (Gs pathway); type: cell-based; settings: 10 μM isoproterenol, relative to biosensor with GSSGGSGGSGGG linker
T1 construct: agonist of the endogenous beta2-adrenergic receptor; endogenous in cells; host or cells: HEK293
From the text: (§1) A mutant cAMP biosensor (termed L9; SEQ ID NO: 104; SEQ ID NO: 105) having a mutant RIIβB binding site (substitutions E284A and V316I) and a modified linker sequence (GSIAGCGDAGEG, SEQ ID NO: 57; SEQ ID NO: 128) was screened for increased light output and increased fold response when expressed in mammalian cells (primary sequence Met-(Photinus pyralis luciferase residues 359-544)-(GSIAGCGDAGEG (SEQ ID NO: 57; SEQ ID NO: SEQ ID NO: 128))-(RIIβB E284A, V316I)-(Photinus pyralis luciferase residues 4-355)-Val). For a stimulatory response, transient expression in HEK293 cells was followed by treatment with 10 μM isoproterenol (agonist of the endogenous beta2-adrenergic receptor). For an inhibitory response, transient expression in HEK293 cells that stably express the dopamine D2 receptor was followed by simultaneous treatment with dopamine in the presence or absence of forskolin

dopamine D2 receptor = molecular target: T2, dopamine D2 receptor (Homo sapiens, UniProt P14416); test: Inhibitory response to dopamine with or without forskolin in HEK293 cells stably expressing D2 (Gi pathway); type: cell-based; settings: relative to biosensor with GSSGGSGGSGGG linker
T2 construct: expressed in transfected cells
From the text: as §1

GPR41 [4] = test: Sodium proprionate CRC with biosensor variants in HEK293 cells stably expressing GPR41; type: cell-based; settings: ratio of RLU of FSK treated well to untreated well
Summary of the method: (§2)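 Luminescent cAMP readout: EC50 and fold response from a sodium propionate concentration-response, tested ± FSK. Luminescence was read before compound and 30 min after. Cells were HEK293 stably expressing GPR41, carrying a transiently transfected cAMP biosensor variant and preloaded 2 h at room temperature with 5 mM EF-luc in CO2-independent medium plus 10% FBS.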

GPR41 [5] = molecular target: T3, GPR41 (Homo sapiens, UniProt O14843); test: as above; type: cell-based
T3 sequence (O14843 1-346): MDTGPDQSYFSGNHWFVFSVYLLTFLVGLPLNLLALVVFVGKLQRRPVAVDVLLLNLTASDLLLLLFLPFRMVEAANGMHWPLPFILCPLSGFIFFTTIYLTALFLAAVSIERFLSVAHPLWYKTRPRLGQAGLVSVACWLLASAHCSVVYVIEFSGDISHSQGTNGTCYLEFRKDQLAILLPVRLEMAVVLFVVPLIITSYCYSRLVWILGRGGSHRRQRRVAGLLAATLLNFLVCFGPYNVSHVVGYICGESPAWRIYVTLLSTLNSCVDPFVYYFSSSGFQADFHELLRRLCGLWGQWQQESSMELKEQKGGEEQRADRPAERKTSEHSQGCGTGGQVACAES
Summary of the method: as §2

T2 sequence (P14416 whole entry, species assumed): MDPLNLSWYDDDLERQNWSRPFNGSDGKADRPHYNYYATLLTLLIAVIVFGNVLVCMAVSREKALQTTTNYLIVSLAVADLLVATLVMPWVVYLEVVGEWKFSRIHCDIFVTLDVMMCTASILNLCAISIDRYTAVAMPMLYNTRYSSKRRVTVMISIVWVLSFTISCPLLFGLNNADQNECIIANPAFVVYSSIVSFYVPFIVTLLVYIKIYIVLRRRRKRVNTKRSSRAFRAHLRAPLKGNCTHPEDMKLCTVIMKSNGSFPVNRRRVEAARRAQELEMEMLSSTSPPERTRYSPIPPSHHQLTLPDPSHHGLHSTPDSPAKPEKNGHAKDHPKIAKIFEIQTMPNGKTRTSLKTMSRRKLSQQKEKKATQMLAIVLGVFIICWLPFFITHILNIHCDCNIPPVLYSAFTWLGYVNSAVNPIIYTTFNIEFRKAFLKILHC

## LRRASLG
[1]
  reduction of activity on addition of kinase catalytic subunit: 30%

## RRFS: Photinus pyralis luciferase with valine 217 mutated to arginine to generate the site RRFS (Sala-Newby et al.)
[2]
  decrease of activity when phosphorylated: up to 80%

B1: L9: cAMP biosensor, RIIβB E284A and V316I, linker GSIAGCGDAGEG; SEQ ID NO:104, 105 (protein)
chain: MPGAVGKVVPFFEAKVVDLDTGKTLGVNQRGELCVRGPMIMSGYVNNPEATNALIDKDGWLHSGDIAYWDEDEHFFIVDRLKSLIKYKGYQVAPAELESILLQHPNIFDAGVAGLPDDDAGELPAAVVVLEHGKTMTEKEIVDYVASQVTTAKKLRGGVVFVDEVPKGLTGKLDARKIREILIKAKKGSIAGCGDAGEGMYESFIESLPFLKSLEFSARLKVVDVIGTKVYNDGEQIIAQGDSADSFFIIESGEVKITMKRKGKSEVEENGAVEIARCSRGQYFGELALVTNKPRAASAHAIGTVKCLAMDVQAFERLLGPCMEIMKRNIATYEEQLVALFGTNMDIVAKNIKKGPAPFYPLEDGTAGEQLHKAMKRYALVPGTIAFTDAHIEVDITYAEYFEMSVRLAEAMKRYGLNTNHRIVVCSENSLQFFMPVLGALFIGVAVAPANDIYNERELLNSMGISQPTVVFVSKKGLQKILNVQKKLPIIQKIIIMDSKTDYQGFQSMYTFVTSHLPPGFNEYDFVPESFDRDKTIALIMNSSGSTGLPKGVALPHRTACVRFSHARDPIFGNQIIPDTAILSVVPFHHGFGMFTTLGYLICGFRVVLMYRFEEELFLRSLQDYKIQSALLVPTLFSFFAKSTLIDKYDLSNLHEIASGGAPLSKEVGEAVAKRFHLPGIRQGYGLTETTSAILITPEGV
[3]
  fold response to isoproterenol induction of the Gs pathway: improved fold response
Dopamine D2 receptor
  fold response for the Gi pathway: improved fold response
GPR41 [4]
  Fold Signal Change: 40.9 fold
GPR41 [5]; with FSK 1 μM
  Fold Response Na proprionate + FSK(1 μM): 2.60 fold
GPR41 [5]; without FSK, ratio of induced to uninduced signal
  Fold Response Na proprionate: 2.73 fold

From patent US9879306B2, “Luciferase biosensors for cAMP” (PROMEGA CORPORATION, priority 2008, dated 2018)
